The numbers were not newly measured in article PMC11166923, which cites them from elsewhere.

In the data set the target is integrin β1D cytoplasmic tail (Homo sapiens) (UniProt P05556).
Chain of UniProt P05556 (P05556 752-798): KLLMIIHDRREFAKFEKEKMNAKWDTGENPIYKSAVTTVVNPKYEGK

Take Talin-2 (from UniProt Q9Y4G6): the Kd is 30 µM.

A word on the Kd: it is the concentration at which binding is half-saturated.
